Results reported in publication PMC9482650, “Quantitative fragmentomics allow affinity mapping of interactomes” (Nature Communications, 2022).
One block for each binder: values may come before it.

Columns and labels:
Assay in all cases: holdup assay
Design in all cases: key: below the threshold = too weak to quantify, mostly under pKd 3.1 to 4
GRIP2_7, Q9C0E4 = molecular target: GRIP2_7, Q9C0E4
DLG1_3, Q12959 = molecular target: DLG1_3, Q12959
GORASP1, Q9BQQ3 = molecular target: GORASP1, Q9BQQ3
FRMPD2_2, Q68DX3 = molecular target: FRMPD2_2, Q68DX3
LIN7C, Q9NUP9 = molecular target: T1, LIN7C, Q9NUP9
T1 sequence (Q9NUP9 88-185, limits assumed, looked up): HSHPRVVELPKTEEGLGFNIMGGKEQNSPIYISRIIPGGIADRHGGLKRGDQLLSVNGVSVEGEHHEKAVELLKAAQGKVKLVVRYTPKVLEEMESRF

HTRA3, P83110 = molecular target: T2, HTRA3, P83110
T2 sequence (P83110 354-453, limits assumed, looked up): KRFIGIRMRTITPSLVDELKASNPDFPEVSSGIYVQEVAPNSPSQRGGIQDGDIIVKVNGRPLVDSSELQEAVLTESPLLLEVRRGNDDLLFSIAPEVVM

SYNJ2BP, P57105 = molecular target: T3, SYNJ2BP, P57105
T3 sequence (P57105 8-110, limits assumed, looked up): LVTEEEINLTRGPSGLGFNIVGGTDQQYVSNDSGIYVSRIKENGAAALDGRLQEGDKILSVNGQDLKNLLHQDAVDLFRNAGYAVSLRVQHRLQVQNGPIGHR

MAGI2_2, Q86UL8 = molecular target: MAGI2_2, Q86UL8
GORASP2, Q9H8Y8 = molecular target: GORASP2, Q9H8Y8
SCRIB_1, Q14160 = molecular target: SCRIB_1, Q14160
SNTA1, Q13424 = molecular target: T4, SNTA1, Q13424
T4 sequence (Q13424 82-180, limits assumed, looked up): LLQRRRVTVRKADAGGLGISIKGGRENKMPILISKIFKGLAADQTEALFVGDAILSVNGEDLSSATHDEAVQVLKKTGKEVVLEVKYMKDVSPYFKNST

CARD11, Q9BXL7 = molecular target: T5, CARD11, Q9BXL7
T5 sequence (Q9BXL7 662-765, limits assumed, looked up): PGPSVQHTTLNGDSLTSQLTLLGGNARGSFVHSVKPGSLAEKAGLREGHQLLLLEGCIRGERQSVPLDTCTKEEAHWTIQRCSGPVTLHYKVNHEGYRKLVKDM

GRIP1_7, Q9Y3R0 = molecular target: T6, GRIP1_7, Q9Y3R0
T6 sequence (Q9Y3R0 999-1096, limits assumed, looked up): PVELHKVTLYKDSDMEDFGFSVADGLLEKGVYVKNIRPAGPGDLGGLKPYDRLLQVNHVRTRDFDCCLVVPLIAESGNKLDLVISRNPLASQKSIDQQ

MAGI2_5, Q86UL8 = molecular target: MAGI2_5, Q86UL8
HTRA2, O43464 = molecular target: HTRA2, O43464
AHNAK1, Q09666 = molecular target: AHNAK1, Q09666
GRID2IP_1, A4D2P6 = molecular target: GRID2IP_1, A4D2P6
MAST1, Q9Y2H9 = molecular target: MAST1, Q9Y2H9
MPDZ_12, O75970 = molecular target: T7, MPDZ_12, O75970
T7 sequence (O75970 1857-1958, limits assumed, looked up): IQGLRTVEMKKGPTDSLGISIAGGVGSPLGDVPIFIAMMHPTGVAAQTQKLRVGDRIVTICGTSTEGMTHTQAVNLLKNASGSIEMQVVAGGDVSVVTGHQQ

DLG4_3, P78352 = molecular target: DLG4_3, P78352
DLG2_2, Q15700 = molecular target: DLG2_2, Q15700
GRIP2_5, Q9C0E4 = molecular target: GRIP2_5, Q9C0E4
LDB3, O75112 = molecular target: LDB3, O75112
TIAM2, Q8IVF5 = molecular target: T8, TIAM2, Q8IVF5
T8 sequence (Q8IVF5 885-986, limits assumed, looked up): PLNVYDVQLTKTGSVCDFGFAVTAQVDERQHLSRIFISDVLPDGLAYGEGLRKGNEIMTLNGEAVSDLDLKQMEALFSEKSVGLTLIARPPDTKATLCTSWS

APBA3_1, O96018 = molecular target: T9, APBA3_1, O96018
T9 sequence (O96018 389-490, limits assumed, looked up): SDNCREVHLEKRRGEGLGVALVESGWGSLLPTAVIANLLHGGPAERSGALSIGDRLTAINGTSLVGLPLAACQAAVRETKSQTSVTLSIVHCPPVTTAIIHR

GRID2IP_2, A4D2P6 = molecular target: GRID2IP_2, A4D2P6
NHERF2_2, Q15599 = molecular target: NHERF2_2, Q15599
SNTG2, Q9NY99 = molecular target: T10, SNTG2, Q9NY99
T10 sequence (Q9NY99 68-166, limits assumed, looked up): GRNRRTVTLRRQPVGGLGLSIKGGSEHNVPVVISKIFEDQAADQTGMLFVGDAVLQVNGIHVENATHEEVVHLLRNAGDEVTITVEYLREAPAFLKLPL

[1] = plain residues with an end cap or a label only (N-terminal biotin on a linker: ahx)
[2] = plain residues with an end cap or a label only (N-terminal biotin on a linker: ttds)

Chain of DLG4_3, P78352 (P78352 306-403): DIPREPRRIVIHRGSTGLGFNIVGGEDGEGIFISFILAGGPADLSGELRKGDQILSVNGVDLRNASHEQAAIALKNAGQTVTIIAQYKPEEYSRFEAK
Chain of GORASP1, Q9BQQ3 (Q9BQQ3 1-208): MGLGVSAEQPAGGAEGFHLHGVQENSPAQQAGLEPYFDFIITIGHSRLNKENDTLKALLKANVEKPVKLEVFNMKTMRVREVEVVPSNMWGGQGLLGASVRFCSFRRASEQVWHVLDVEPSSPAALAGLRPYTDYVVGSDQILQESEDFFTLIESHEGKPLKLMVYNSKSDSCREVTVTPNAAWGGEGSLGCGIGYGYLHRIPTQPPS
Chain of GRIP2_5, Q9C0E4 (Q9C0E4 544-642): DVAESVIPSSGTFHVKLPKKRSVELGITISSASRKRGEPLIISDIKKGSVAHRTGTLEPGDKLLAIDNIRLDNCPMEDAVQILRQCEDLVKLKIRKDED
Chain of FRMPD2_2, Q68DX3 (Q68DX3 944-1038): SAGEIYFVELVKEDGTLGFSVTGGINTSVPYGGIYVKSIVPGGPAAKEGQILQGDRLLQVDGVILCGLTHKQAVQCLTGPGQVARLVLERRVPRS
Chain of LDB3, O75112 (O75112 1-94): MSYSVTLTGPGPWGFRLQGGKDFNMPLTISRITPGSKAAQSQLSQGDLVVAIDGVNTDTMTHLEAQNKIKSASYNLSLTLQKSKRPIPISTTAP
Chain of DLG1_3, Q12959 (Q12959 457-571): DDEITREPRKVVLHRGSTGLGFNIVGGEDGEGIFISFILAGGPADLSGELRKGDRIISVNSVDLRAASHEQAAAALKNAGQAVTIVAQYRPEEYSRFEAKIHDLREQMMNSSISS
Chain of MAGI2_5, Q86UL8 (Q86UL8 915-1017): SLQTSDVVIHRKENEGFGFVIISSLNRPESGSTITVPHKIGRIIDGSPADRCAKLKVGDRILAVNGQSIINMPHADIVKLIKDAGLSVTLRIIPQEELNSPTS
Chain of GRID2IP_1, A4D2P6 (A4D2P6 1-87): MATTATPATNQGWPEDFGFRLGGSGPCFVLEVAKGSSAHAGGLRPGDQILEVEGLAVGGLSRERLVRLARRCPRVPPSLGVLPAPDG
Chain of SCRIB_1, Q14160 (Q14160 718-814): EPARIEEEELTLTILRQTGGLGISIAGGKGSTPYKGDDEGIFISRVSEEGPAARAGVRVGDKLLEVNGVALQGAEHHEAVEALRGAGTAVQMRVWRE
Chain of DLG2_2, Q15700 (Q15700 189-283): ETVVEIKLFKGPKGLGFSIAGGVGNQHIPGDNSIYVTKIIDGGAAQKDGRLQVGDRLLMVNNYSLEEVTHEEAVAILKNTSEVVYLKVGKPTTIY
Chain of MAST1, Q9Y2H9 (Q9Y2H9 962-1065): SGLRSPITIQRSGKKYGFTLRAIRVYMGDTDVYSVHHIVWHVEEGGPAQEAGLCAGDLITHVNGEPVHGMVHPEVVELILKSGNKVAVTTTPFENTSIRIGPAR
Chain of GRIP2_7, Q9C0E4 (Q9C0E4 934-1023): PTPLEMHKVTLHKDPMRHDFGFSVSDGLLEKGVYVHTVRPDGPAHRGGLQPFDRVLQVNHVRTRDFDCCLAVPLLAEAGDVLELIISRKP
Chain of NHERF2_2, Q15599 (Q15599 142-238): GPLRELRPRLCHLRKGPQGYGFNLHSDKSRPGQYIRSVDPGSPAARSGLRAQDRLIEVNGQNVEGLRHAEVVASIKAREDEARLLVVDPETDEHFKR
Chain of GRID2IP_2, A4D2P6 (A4D2P6 272-370): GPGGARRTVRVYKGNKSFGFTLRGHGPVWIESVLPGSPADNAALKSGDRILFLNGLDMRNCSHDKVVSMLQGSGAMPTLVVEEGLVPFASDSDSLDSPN
Chain of AHNAK1, Q09666 (Q09666 4-100): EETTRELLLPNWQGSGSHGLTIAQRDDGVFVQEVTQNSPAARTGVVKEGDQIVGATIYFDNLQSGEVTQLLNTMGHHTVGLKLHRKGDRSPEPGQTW
Chain of MAGI2_2, Q86UL8 (Q86UL8 410-522): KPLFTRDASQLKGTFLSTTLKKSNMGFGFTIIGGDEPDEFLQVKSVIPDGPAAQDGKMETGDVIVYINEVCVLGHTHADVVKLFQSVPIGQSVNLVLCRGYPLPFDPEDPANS
Chain of HTRA2, O43464 (O43464 355-458): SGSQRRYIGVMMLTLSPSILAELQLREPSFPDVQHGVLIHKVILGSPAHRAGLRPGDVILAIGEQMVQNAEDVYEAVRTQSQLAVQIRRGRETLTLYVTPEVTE

pKd (GRIP2_7, Q9C0E4; [1]): below the threshold | pKd (DLG1_3, Q12959; [1]): below the threshold | pKd (GORASP1, Q9BQQ3; [1]): below the threshold | pKd (FRMPD2_2, Q68DX3; [1]): below the threshold | pKd (LIN7C, Q9NUP9; [1]): below the threshold | pKd (HTRA3, P83110; [1]): below the threshold | pKd (SYNJ2BP, P57105; [1]): below the threshold | pKd (MAGI2_2, Q86UL8; [1]): below the threshold | pKd (GORASP2, Q9H8Y8; [1]): below the threshold | pKd (SCRIB_1, Q14160; [1]): below the threshold | pKd (SNTA1, Q13424; [1]): below the threshold | pKd (CARD11, Q9BXL7; [1]): below the threshold | pKd (GRIP1_7, Q9Y3R0; [1]): below the threshold | pKd (MAGI2_5, Q86UL8; [1]): 3.7 | pKd (HTRA2, O43464; [1]): below the threshold | pKd (AHNAK1, Q09666; [1]): below the threshold | pKd (GRID2IP_1, A4D2P6; [1]): below the threshold | pKd (MAST1, Q9Y2H9; [1]): 4.02 | pKd (MPDZ_12, O75970; [1]): below the threshold | pKd (DLG4_3, P78352; [1]): below the threshold | pKd (DLG2_2, Q15700; [1]): below the threshold | pKd (GRIP2_5, Q9C0E4; [1]): below the threshold | pKd (LDB3, O75112; [1]): below the threshold | pKd (TIAM2, Q8IVF5; [1]): below the threshold | pKd (APBA3_1, O96018; [1]): below the threshold | pKd (GRID2IP_2, A4D2P6; [1]): below the threshold | pKd (NHERF2_2, Q15599; [1]): 5 | pKd (SNTG2, Q9NY99; [1]): below the threshold
Binder: RAVEEEESRF [PSCDBP, O60759]

pKd (GRIP2_7, Q9C0E4; [2]): below the threshold | pKd (DLG1_3, Q12959; [2]): 4.11 | pKd (GORASP1, Q9BQQ3; [2]): below the threshold | pKd (FRMPD2_2, Q68DX3; [2]): below the threshold | pKd (LIN7C, Q9NUP9; [2]): 3.73 | pKd (HTRA3, P83110; [2]): below the threshold | pKd (SYNJ2BP, P57105; [2]): 4.53 | pKd (MAGI2_2, Q86UL8; [2]): 3.78 | pKd (GORASP2, Q9H8Y8; [2]): 3.87 | pKd (SCRIB_1, Q14160; [2]): 3.83 | pKd (SNTA1, Q13424; [2]): 4.28 | pKd (CARD11, Q9BXL7; [2]): below the threshold | pKd (GRIP1_7, Q9Y3R0; [2]): 3.47 | pKd (MAGI2_5, Q86UL8; [2]): below the threshold | pKd (HTRA2, O43464; [2]): below the threshold | pKd (AHNAK1, Q09666; [2]): below the threshold | pKd (GRID2IP_1, A4D2P6; [2]): below the threshold | pKd (MAST1, Q9Y2H9; [2]): 4.77 | pKd (MPDZ_12, O75970; [2]): below the threshold | pKd (DLG4_3, P78352; [2]): 3.71 | pKd (DLG2_2, Q15700; [2]): 3.84 | pKd (GRIP2_5, Q9C0E4; [2]): below the threshold | pKd (LDB3, O75112; [2]): below the threshold | pKd (TIAM2, Q8IVF5; [2]): below the threshold | pKd (APBA3_1, O96018; [2]): below the threshold | pKd (GRID2IP_2, A4D2P6; [2]): 3.48 | pKd (NHERF2_2, Q15599; [2]): 3.77 | pKd (SNTG2, Q9NY99; [2]): 4.11
Binder: VDFPPKESSL [ACVR2A, P27037]
